Measured values taken from paper PMC6959593.

Assays:
[1] = target: VEGFR-2 of HUVECs (human (endogenous in HUVECs)) (UniProt P35968)
[2] = target: VEGFR-2 of HUVECs (human (endogenous in HUVECs)) (UniProt P35968); remark: listed apart in the source
[3] = target: VEGFR-2 of HUVECs (human (endogenous in HUVECs)) (UniProt P35968); experiment: proximity ligation; Duolink in situ PLA on HUVECs treated with VEGF/CaD for 2 min, fixed in paraformaldehyde and permeabilized; goat anti-VEGF and rabbit anti-VEGFR2 antibodies overnight at 4°C; dots per cell counted with ImageJ

Chain of UniProt P35968 (P35968 20-1356): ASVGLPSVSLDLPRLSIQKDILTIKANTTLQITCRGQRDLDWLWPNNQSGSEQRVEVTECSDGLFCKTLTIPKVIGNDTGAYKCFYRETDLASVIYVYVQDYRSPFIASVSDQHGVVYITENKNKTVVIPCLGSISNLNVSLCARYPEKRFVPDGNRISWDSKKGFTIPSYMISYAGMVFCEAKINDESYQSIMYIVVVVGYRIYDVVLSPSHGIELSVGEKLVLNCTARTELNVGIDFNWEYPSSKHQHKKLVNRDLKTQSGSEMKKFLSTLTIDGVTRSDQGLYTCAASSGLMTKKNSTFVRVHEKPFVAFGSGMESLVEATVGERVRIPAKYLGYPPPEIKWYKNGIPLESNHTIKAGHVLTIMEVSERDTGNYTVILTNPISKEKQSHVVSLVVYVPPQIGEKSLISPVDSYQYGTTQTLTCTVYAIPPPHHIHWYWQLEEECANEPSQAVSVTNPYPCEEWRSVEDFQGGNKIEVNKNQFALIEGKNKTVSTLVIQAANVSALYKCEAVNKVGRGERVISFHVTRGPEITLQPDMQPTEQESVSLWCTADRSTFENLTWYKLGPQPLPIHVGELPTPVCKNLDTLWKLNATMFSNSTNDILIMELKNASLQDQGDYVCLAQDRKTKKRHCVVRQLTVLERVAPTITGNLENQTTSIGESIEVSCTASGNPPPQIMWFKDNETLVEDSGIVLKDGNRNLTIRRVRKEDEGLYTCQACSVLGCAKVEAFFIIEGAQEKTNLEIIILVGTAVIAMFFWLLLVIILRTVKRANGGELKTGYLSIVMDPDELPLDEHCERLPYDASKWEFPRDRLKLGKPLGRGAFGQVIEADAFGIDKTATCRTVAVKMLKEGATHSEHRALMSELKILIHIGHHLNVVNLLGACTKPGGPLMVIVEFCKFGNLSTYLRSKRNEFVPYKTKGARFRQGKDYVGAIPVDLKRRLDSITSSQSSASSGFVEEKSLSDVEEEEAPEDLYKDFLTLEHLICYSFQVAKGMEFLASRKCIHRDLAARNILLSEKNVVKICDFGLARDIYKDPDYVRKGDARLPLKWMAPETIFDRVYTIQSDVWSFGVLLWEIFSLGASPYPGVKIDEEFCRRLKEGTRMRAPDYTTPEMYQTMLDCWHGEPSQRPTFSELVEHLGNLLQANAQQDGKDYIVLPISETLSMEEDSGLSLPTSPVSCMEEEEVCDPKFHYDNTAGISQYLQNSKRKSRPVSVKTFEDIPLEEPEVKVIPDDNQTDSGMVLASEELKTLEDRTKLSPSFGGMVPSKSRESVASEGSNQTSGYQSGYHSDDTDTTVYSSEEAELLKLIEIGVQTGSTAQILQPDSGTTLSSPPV

A VEGF165 (25 ng/mL)-induced phosphorylation of VEGFR-2 in HUVECs (Western blot, 2 min), VEGF165 premixed with CaD (6-100 μM) for 60 min [1] of less than 50%, a VEGF165 (25 ng/ml)-induced phosphorylation of VEGFR-2 in heparanase (HPSE, 0.5 μg/ml)-treated HUVECs, with CaD (100 μM), relative to VEGF alone (Western blot) [2] of 50% and a decrease of the PLA signal in the presence of CaD [3] of 60% were found for recombinant VEGF165 (ligand) in this work.
